For orientation: EC50 means the concentration that produces a half-maximal response. The low end stands for higher potency in that assay, the high end for lower potency in that assay. A word on the Kd: it is the free concentration of one partner at which half of the binding sites on the other are occupied at equilibrium, for simple one-to-one binding. A lower Kd goes with a tighter complex. For orientation: koff means the rate constant with which the complex falls apart. What is called kon is the second-order rate constant of association.

This is an account of results in patent US20240254201A1 (ACADEMY OF MILITARY MEDICAL SCIENCE PLA, published 2024).

For assay [1], the target named is T1, GPdMucin (Ebola virus (EBOV), UniProt Q05320 33-632).
T1 construct: domain: GPdMucin; also called GPΔMuc; GPdmucin-His6
Put plainly: ELISA on coated truncated GP. Background: In an ELISA, binding on a coated surface is turned into a signal by an enzyme label.

The target of assay [2] is T1, GPdMucin. Put plainly: SPR, BIACORE 3000; 2G1 captured by anti-human IgG Fc on CM5, GPdMucin as analyte.

B1: monoclonal antibody 2G1 (antibody, V domains shown)
VH: EVQLVESGGGLVKRGGSLRLSCVVSGYTFGGYSMHWVRQAPGKGLEWVSGISSSSYYKYYADSVKGRFTISRDNAKNSLYLQMNSLRAEDTAVYYCARDMGYCSGGSCPNFDFWGQGTTVTVSS
VL: DIQMTQSPSSLSASVGDRVTITCRTSQSISNYLNWYQQIPGKAPKLLISTASNLHSGVSSRFSGSGSGTHFTLTISSLQPEDFATYYCQQSYSTPSFGQGTKVEIKR
notes: also called 2G1-WT; wild-type 2G1
In the case of B1, in the assay with GPdMucin [1], it took 3.7 ng/mL to reach a half-maximal effect (EC50). For the same molecule, in the assay with GPdMucin [2], binding was characterised by a dissociation constant (Kd) of 734 pM, the koff was determined as 3.75e-05 s⁻¹ and the association rate constant (kon) came to 51100 M⁻¹ s⁻¹.
